These results are taken from US7402417B2, “P450 oxygenases and methods of use” (Washington State University Research Foundation, priority 2003, dated 2008).

What is called Km is the concentration of substrate that gives half-maximal velocity.

Substrate in series [1]: C=C1CCC[C@@]2(C)CCC3=C(C)CC[C@@H](C[C@H]12)C3(C)C
In words: Kinetic evaluation of taxadiene isomers, average of recombinant and T. media microsomes (FIG. 4). As to conditions: other: average of recombinant (Sf9) and T. media microsomes; substrate 1 to 500 μM. In kind it is biochemical, Taxus. On the procedure: (§1) Taxa-4(20),11(12)-diene (◯) and taxa-4(5),11(12)-diene (●) were evaluated with microsomes from S. formgiperda cells enriched with 50 pmol recombinant taxoid 5α-hydroxylase (A), and with microsomes from T. media suspension cells containing about 50 pmol of total native cytochrome P450 (B). Substrate Concentration range was varied from 1 to 500 μM in all cases.

Substrate in series [2]: [H][C@]12CCC(C)=C(CC[C@]3(C)CCC=C(C)[C@@]3([H])C1)C2(C)C
The description is as above. In kind it is biochemical, Taxus. Particulars: other: average of recombinant (Sf9) and T. media microsomes; substrate 1 to 500 μM. As to the method: as §1

Substrate in series [3]: C=C1CCC[C@@]2(C)CCC3=C(C)CC[C@@H](C[C@H]12)C3(C)C
In words: Kinetic evaluation with Sf9 microsomes enriched in recombinant 5α-hydroxylase (radio-HPLC, Michaelis-Menten). The series is classed as biochemical, Taxus cuspidata. Particulars: other: Sf9 microsomes, recombinant enzyme, 200 μM NADPH plus regenerating system; pH 7.5. On the procedure: (§2) Kinetic constants for both isomers were next evaluated (at a saturating 200 μM concentration of NADPH plus regenerating system; Shimada and Yamazai, Meth. Mol. Biol., 107:85-93, 1998). The isolated microsomes were resuspended in 50 mM Hepes, pH 7.5, containing 1 mM DTT and 5% (v/v) glycerol, and the 1 ml reactions (˜600 μg protein, 50 μM substrate dissolved in DMSO, and the requisite cofactors (e.g., NADPH plus regenerating system) were run as described previously, with the identical protocols for product analysis (Jennewein et al., Proc. Natl. Acad. Sci. USA, 98:13595-13600, 2001). DMSO was without influence on the reaction. For kinetic evaluation, following the establishment of linear reaction conditions in protein concentration and time, the response to substrate concentration was plotted by the Michaelis-Menten method (Sigmaplot 7.0) using the calibrated radio-HPLC protocol for product determination Data from three independent experiments were pooled and the line of best fit taken (R^2>0.99).

Substrate in series [4]: [H][C@]12CCC(C)=C(CC[C@]3(C)CCC=C(C)[C@@]3([H])C1)C2(C)C
Described as above. The series is classed as biochemical, Taxus cuspidata. As to conditions: other: Sf9 microsomes, recombinant enzyme, 200 μM NADPH plus regenerating system; pH 7.5. On the procedure: as §2

B1: taxoid 5α-hydroxylase (Taxus cuspidata) (protein)
chain: MDALYKSTVAKFNEVTQLDCSTESFSIALSAIAGILLLLLLFRSKRHSSLKLPPGKLGIPFIGESFIFLRALRSNSLEQFFDERVKKFGLVFKTSLIGHPTVVLCGPAGNRLILSNEEKLVQMSWPAQFMKLMGENSVATRRGEDHIVMRSALAGFFGPGALQSYIGKMNTEIQSHINEKWKGKDEVNVLPLVRELVFNISAILFFNIYDKQEQDRLHKLLETILVGSFALPIDLPGFGFHRALQGRAKLNKIMLSLIKKRKEDLQSGSATATQDLLSVLLTFRDDKGTPLTNDEILDNFSSLLHASYDTTTSPMALIFKLLSSNPECYQKVVQEQLEILSNKEEGEEITWKDLKAMKYTWQVAQETLRMFPPVFGTFRKAITDIQYDGYTIPKGWKLLWTTYSTHPKDLYFNEPEKFMPSRFDQEGKHVAPYTFLPFGGGQRSCVGWEFSKMEILLFVHHFVKTFSSYTPVDPDEKISGDPLPPLPSKGFSIKLFPRP
For B1, the Km is 21.5 µM in series [1] and 36 µM in series [2].

B2: recombinant taxoid 5α-hydroxylase (clone S1) (Taxus cuspidata) (protein)
chain: MDALYKSTVAKFNEVTQLDCSTESFSIALSAIAGILLLLLLFRSKRHSSLKLPPGKLGIPFIGESFIFLRALRSNSLEQFFDERVKKFGLVFKTSLIGHPTVVLCGPAGNRLILSNEEKLVQMSWPAQFMKLMGENSVATRRGEDHIVMRSALAGFFGPGALQSYIGKMNTEIQSHINEKWKGKDEVNVLPLVRELVFNISAILFFNIYDKQEQDRLHKLLETILVGSFALPIDLPGFGFHRALQGRAKLNKIMLSLIKKRKEDLQSGSATATQDLLSVLLTFRDDKGTPLTNDEILDNFSSLLHASYDTTTSPMALIFKLLSSNPECYQKVVQEQLEILSNKEEGEEITWKDLKAMKYTWQVAQETLRMFPPVFGTFRKAITDIQYDGYTIPKGWKLLWTTYSTHPKDLYFNEPEKFMPSRFDQEGKHVAPYTFLPFGGGQRSCVGWEFSKMEILLFVHHFVKTFSSYTPVDPDEKISGDPLPPLPSKGFSIKLFPETIVN
notes: the S1 ORF was amplified using Pfu DNA polymerase and gene-specific primers containing a BamHI site immediately upstream of the start codon; made in house; host or cells: Spodoptera frugiperda Sf9 cells (baculovirus, pFastBac1); microsomal membranes
With B2, the results for the Km in series [3] and in series [4] were 16 ± 3.2 µM and 24 ± 2.5 µM, respectively.
